Target: CD52 (human) (UniProt P31358)
Assay: cell-based or functional assay

**Q.** With CAMPATH (alemtuzumab) (antibody) as the substance, how does the depletion of infused CD4CAR T cells in mouse blood, 0.1 mg/kg CAMPATH, 6 h and 48 h read?
**A.** > 95%

Source: US20240141041A1
